B1: glmS ribozyme (parent)
chain: AUAAAAGCGCCAGAACUACAGAAAUGUAGUUGACGAGGAGGAGGUUUAUCGAAUUUUCGGCGGAUGCCUCCAAA

What all share (settings): with glucosamine-6-phosphate
Series [1] covers variants of B1. The series is described as follows: kcat; higher = faster cleavage; RNA array. In a few lines: (§1)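 Glucosamine-6-phosphate in HEPES/KCl/Mg(OAc)2 buffer, at 40 μM to 10 mM, was flowed over barcoded ribozyme variants transcribed in situ by E. coli RNA polymerase on sequenced MiSeq chips. Tracking was through a hybridised Cy3 probe at 37 °C. kobs, kcat and KM came from exponential decay fits and weighted Michaelis–Menten fits of normalised per-tile medians.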

Series [2] covers variants of B1. The series is described as follows: self-cleavage kobs at 160 uM GlcN6P; higher = faster cleavage; RNA array. In a few lines: as §1
Series [3] covers variants of B1. The series can be described thus: self-cleavage kobs at 640 uM GlcN6P; higher = faster cleavage; RNA array. Put shortly:
as §1

Variants of B1 are the subject of series [4]. The series is described as follows: self-cleavage kobs at 2500 uM GlcN6P; higher = faster cleavage; RNA array. In a few lines:
as §1

In series [5] the parent is B1. The series can be described thus: self-cleavage kobs at 10000 uM GlcN6P; higher = faster cleavage; RNA array. Put shortly: as §1
Variants of B1 are the subject of series [6]. The series is described as follows: KM; higher = weaker cofactor use; RNA array. Put shortly:
as §1

Series [7] covers variants of B1. The series is described as follows: self-cleavage kobs at 40 uM GlcN6P; higher = faster cleavage; RNA array. Put shortly: as §1

± gives the standard error. For some assays here: Variants at the floor of the assay were thinned out. A value given as a limit tells only on which side of the number the result lay.

Experimental findings from the supplement of paper PMC7125110 are described below.

One may read the kcat as the number of substrate molecules converted per active site and unit of time at saturation. As usually defined, the KM is the concentration of substrate that gives half-maximal velocity.

For the variant AUAAAAGCGCCAGAACUACAGAAAUGUAGUUAACGAGGAGGAGGUUUAUCGAAUUUUCGGUGGAUGCCUCCAAA [G32A C61U], the kcat in series [1] was below 1e-05 s⁻¹. Moreover, the “self-cleavage kobs at 160 uM GlcN6P” value in series [2] is below 1e-05 s⁻¹. Also, the “self-cleavage kobs at 640 uM GlcN6P” value in series [3] was below 1e-05 s⁻¹.

Consider AUAAAAGCGCCAGAACUACAGAAAUGUAGUUGUCGAGGGGGAGGUUUAUCGAAUUUUCGGCGGAUGCCUCCAAA [A33U A39G], for which the kcat in series [1] came to 0.00016 ± 3.8e-05 s⁻¹. Also, the “self-cleavage kobs at 160 uM GlcN6P” value in series [2] was below 1e-05 s⁻¹. In series [4], the “self-cleavage kobs at 2500 uM GlcN6P” value was 6.65e-05 ± 2.8e-05 s⁻¹. The “self-cleavage kobs at 10000 uM GlcN6P” value in series [5] amounted to 0.000108 ± 1.3e-05 s⁻¹.

For AUAAAAGCGCCAGAACUACAGAAAUGUAGUUGACGAGGAGAAGGUUUAUCGAAUUUUCGGCGGAAGCCUCCAAA [G41A U65A], the kcat in series [1] amounted to 0.000213 ± 2.1e-05 s⁻¹. For the same variant, the KM in series [6] came to 1040 ± 220 µM. In addition, the “self-cleavage kobs at 640 uM GlcN6P” value in series [3] came to 7.98e-05 ± 1.2e-05 s⁻¹. Also, the “self-cleavage kobs at 2500 uM GlcN6P” value in series [4] was determined as 0.000171 ± 3e-05 s⁻¹. Further, in series [5], the “self-cleavage kobs at 10000 uM GlcN6P” value amounted to 0.000182 ± 3e-05 s⁻¹.

In the case of AUAAAAGCGCCAGAGCUACAGAAAUGUAGUUGACGAGGAGGAGGUUUAUCGAAUUUCAGGCGGAUGCCUCCAAA [A15G U57C C58A], in series [1], the kcat came to 3.45e-05 ± 4.1e-06 s⁻¹. The “self-cleavage kobs at 10000 uM GlcN6P” value in series [5] was 3.05e-05 ± 1.1e-05 s⁻¹.

AUAAAAGCGCCAGAACUACAGAAAUGUAGUUGACGAGGGGGCGGUUUAUCGAAUUUUCGGCGGAUGCCUCCAAA [A39G A42C]: the kcat in series [1] was 3.82e-05 ± 3.7e-06 s⁻¹. For the same variant, the “self-cleavage kobs at 2500 uM GlcN6P” value in series [4] came out at 3e-05 ± 1.4e-05 s⁻¹. In series [5], the “self-cleavage kobs at 10000 uM GlcN6P” value is 3.4e-05 ± 8e-06 s⁻¹.

As for AUAAAAGCGCCAGAACUACAGAAAUGUAGUUGACGAGGAGGAGGUGUAUCGAAUCUUCGGCGGAUGCCUCCAAA [U46G U55C], the kcat in series [1] was found to be 0.0109 ± 0.0051 s⁻¹. The “self-cleavage kobs at 40 uM GlcN6P” value in series [7] came to 0.000264 ± 3.5e-05 s⁻¹. Also, the “self-cleavage kobs at 160 uM GlcN6P” value in series [2] came to 0.000497 ± 5.4e-05 s⁻¹. For the same variant, the “self-cleavage kobs at 640 uM GlcN6P” value in series [3] was 0.00171 ± 0.00029 s⁻¹. Moreover, the “self-cleavage kobs at 2500 uM GlcN6P” value in series [4] came out at 0.00371 ± 0.00062 s⁻¹. In addition, the “self-cleavage kobs at 10000 uM GlcN6P” value in series [5] amounted to 0.0103 ± 0.0013 s⁻¹.

As for AUAAAAGCGCCAGAACUACAGAAAUGUAGUUGACGAGGAGGAGGUUUAUCGACUUUUCCGCGGAUGCCUCCAAA [A53C G59C], in series [1], the kcat is below 1e-05 s⁻¹. In addition, in series [7], the “self-cleavage kobs at 40 uM GlcN6P” value is below 1e-05 s⁻¹. In series [3], the “self-cleavage kobs at 640 uM GlcN6P” value was below 1e-05 s⁻¹. The “self-cleavage kobs at 10000 uM GlcN6P” value in series [5] was below 1e-05 s⁻¹.

AUAAAAGCGCCAGAACUACAGAAAUGUAGUGGACGAGGCGGAGGUUUAUCGAAUUUUCGGCGGAUGCCUCCAAA [U31G A39C]: in series [1], the kcat turned out to be 0.00339 ± 0.0008 s⁻¹. Also, the KM in series [6] stood at 3130 ± 1100 µM. In series [2], the “self-cleavage kobs at 160 uM GlcN6P” value amounted to 0.000147 ± 3.4e-05 s⁻¹. Also, the “self-cleavage kobs at 640 uM GlcN6P” value in series [3] turned out to be 0.000584 ± 0.00012 s⁻¹. Also, the “self-cleavage kobs at 2500 uM GlcN6P” value in series [4] was 0.00195 ± 0.00036 s⁻¹. In addition, the “self-cleavage kobs at 10000 uM GlcN6P” value in series [5] is 0.00236 ± 0.00045 s⁻¹.

For the variant AUAAAAGCGACAGAACUACAGAAAUGUAGUUGACGAGGAGGAGGUUUAUAGAAUUUUCGGCGGAUGCCUCCAAA [C10A C50A], the turnover number (kcat) in series [1] turned out to be 2e-05 ± 5.5e-06 s⁻¹.

On to AUAAAAGCGCCAGAACUACAGAAAUGUAGUUGACGAGGAGGAGGUUUAUCGUAUUUUCGGCGGACGCCUCCAAA [A52U U65C], for which the kcat in series [1] is below 1e-05 s⁻¹. In addition, in series [7], the “self-cleavage kobs at 40 uM GlcN6P” value is below 1e-05 s⁻¹.

As for AUAAAAGCGCCAGAACUACAGAAAUGUAGUUGACGAGGUGGAGGUUUAUCGAAUUUUCGGUGGAUGCCUCCAAA [A39U C61U], the kcat in series [1] is below 1e-05 s⁻¹.

On to AUAAAAGCGCCAGAACUACAGAAAUGUAGUUGACGAGGAGGAGGUUUAUCGAAUUUUCGGCGGUUGCCUCGAAA [A64U C71G], for which the kcat in series [1] worked out at 1.96e-05 ± 1.5e-06 s⁻¹.
